According to patent US20090226404A1 (published 2009):

Tests used:
[1] = target: T1, gp100 (209-217 analogue) peptide on HLA-A*02:01 (human); assay: killing
T1 peptide: IMDQVPFSV

[2] = target: T2, gp100 peptide on HLA-A*02:01 (human); assay: cytolytic efficiency of the parental 296 CTL clone, peptide titration; value cited from ref. 24; T cell clone or line
T2 peptide: YLEPGPVTA

[3] = target: T2, gp100 peptide on HLA-A*02:01; assay: cytolytic efficiency of retrovirally transduced T cells, peptide titration; value taken from earlier work (ref. 24); full-length, on cells
[4] = target: T2, gp100 peptide on HLA-A*02:01; assay: 51Cr release with peptide titrated on T2 cells; RNA-electroporated CD8+ T cells 24 h after electroporation; upper end of the range; full-length, on cells
Experimental: (§1) CD8⁺ T cells were electroporated with EGFP RNA (Neg) or RNA coding for the TCR α and β chain, and were used as effector cells in cytotoxicity assays 24 h after electroporation. T2 cells loaded with different concentrations of gp100₂₈₀₋₂₈₈ peptide (as indicated) were used as target cells, and % lysis was calculated. The target to effector cell ratio was 1:15. The peptide concentration corresponding to 50% of the maximum lysis (ED₅₀), used to measure the cytolytic efficiency, is indicated by the dotted line. Average values of triplicates±SD are shown. Data of one (out of five) representative T cell donor is shown.
(§2) From previous published work, we know that the cytolytic efficiency of the parental 296 CTL clone was preserved following retroviral transduction of TCR genes into T cells. To test the avidity of the TCR RNA-transfected T cells, we performed a cytotoxicity assay (24 h after electroporation) in which we titrated the gp100₂₈₀₋₂₈₈ peptide on T2 target cells (FIG. 6). The peptide concentration corresponding to 50% of the maximum lysis (i.e. ED₅₀) of the TCR RNA-transfected T cells ranged from 300-1000 pM in three independent experiments (FIG. 6). This is in the same range as the cytolytic efficiency of the retrovirally transduced T cells (ED₅₀=300 pM). Both approximate the cytolytic efficiency of the parental 296 CTL clone, which has an ED₅₀ of 50 pM [24]. […]

[5] = target: T2, gp100 peptide on HLA-A*02:01; assay: 51Cr release with peptide titrated on T2 cells; RNA-electroporated CD8+ T cells 24 h after electroporation; ED50 is the peptide concentration at 50% of maximum lysis; lower end of the range; full-length, on cells
Experimental: as §1, §2

EC50 of peptide [2]: 0.05 nM
EC50 of peptide [3]: 0.3 nM
EC50 of peptide [4]: ≤ 1 nM
EC50 of peptide [5]: ≥ 0.3 nM
B1: gp100-specific 296 TCR (TCR, V domains shown)
Valpha: GENVEQHPSTLSVQEGDSAVIKCTYSDSASNYFPWYKQELGKGPQLIIDIRSNVGEKKDQRIAVTLNKTAKHFSLHITETQPEDSAVYFCAASTSGGTSYGKLTFGQGTILTVHP
Vbeta: EAQVTQNPRYLITVTGKKLTVTCSQNMNHEYMSWYRQDPGLGLRQIYYSMNVEVTDKGDVPEGYKVSRKEKRNFPLILESPSPNQTSLYFCASSLGSSYEQYFGPGTRLTVT
binding result [1]: no recognition
